Some targets named below: human CD33 S135A (human, UniProt P20138 18-364); human CD33 T162A (human, UniProt P20138 18-364); human CD33 N100A (human, UniProt P20138 18-364); human CD33 S97A (human, UniProt P20138 18-364); human CD33 E154A (human, UniProt P20138 18-364); human CD33 S102A (human, UniProt P20138 18-364); human CD33 L134A (human, UniProt P20138 18-364); human CD33 R122A (human, UniProt P20138 18-364); human CD33 K159A (human, UniProt P20138 18-364); human CD33 R109A (human, UniProt P20138 18-364); human CD33 P150A (human, UniProt P20138 18-364); human CD33 P145A (human, UniProt P20138 18-364); human CD33 G156A (human, UniProt P20138 18-364); human CD33 G151A (human, UniProt P20138 18-364); human CD33 L141A (human, UniProt P20138 18-364); human CD33 W167A (human, UniProt P20138 18-364); human CD33 N99A (human, UniProt P20138 18-364); human CD33 N160A (human, UniProt P20138 18-364); human CD33 C101A (human, UniProt P20138 18-364); human CD33 D107A (human, UniProt P20138 18-364).

Holding throughout (assay): flow cytometry on HEK293-T, alanine scan
Background: A flow cytometer gives signals particle by particle.

This note sets out measurements from patent publication US20260242735A1 (UNIVERSIT T BASEL, published 2026).

Chain of human CD33 L141A (P20138 18-364 L141A limits assumed): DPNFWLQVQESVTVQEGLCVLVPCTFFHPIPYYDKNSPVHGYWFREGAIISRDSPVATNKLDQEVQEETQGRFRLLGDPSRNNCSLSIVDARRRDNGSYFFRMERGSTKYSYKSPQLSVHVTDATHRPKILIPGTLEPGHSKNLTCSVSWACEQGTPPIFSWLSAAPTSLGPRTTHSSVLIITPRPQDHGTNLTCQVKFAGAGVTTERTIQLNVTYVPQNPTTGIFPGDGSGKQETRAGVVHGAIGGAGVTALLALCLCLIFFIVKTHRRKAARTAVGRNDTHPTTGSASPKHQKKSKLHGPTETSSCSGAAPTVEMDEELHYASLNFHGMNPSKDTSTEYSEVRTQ
Chain of human CD33 P145A (P20138 18-364 P145A limits assumed): as the sequence (P20138 18-364 L141A limits assumed) above, with A124L, P128A counted along it
Chain of human CD33 D107A (P20138 18-364 D107A limits assumed): as the sequence (P20138 18-364 L141A limits assumed) above, with D90A, A124L counted along it
Chain of human CD33 G156A (P20138 18-364 G156A limits assumed): as the sequence (P20138 18-364 L141A limits assumed) above, with A124L, G139A counted along it
Chain of human CD33 T162A (P20138 18-364 T162A limits assumed): as the sequence (P20138 18-364 L141A limits assumed) above, with A124L, T145A counted along it
Chain of human CD33 S102A (P20138 18-364 S102A limits assumed): as the sequence (P20138 18-364 L141A limits assumed) above, with S85A, A124L counted along it
Chain of human CD33 R122A (P20138 18-364 R122A limits assumed): as the sequence (P20138 18-364 L141A limits assumed) above, with R105A, A124L counted along it
Chain of human CD33 S135A (P20138 18-364 S135A limits assumed): as the sequence (P20138 18-364 L141A limits assumed) above, with S118A, A124L counted along it
Chain of human CD33 P150A (P20138 18-364 P150A limits assumed): as the sequence (P20138 18-364 L141A limits assumed) above, with A124L, P133A counted along it
Chain of human CD33 R109A (P20138 18-364 R109A limits assumed): as the sequence (P20138 18-364 L141A limits assumed) above, with R92A, A124L counted along it
Chain of human CD33 S97A (P20138 18-364 S97A limits assumed): as the sequence (P20138 18-364 L141A limits assumed) above, with S80A, A124L counted along it
Chain of human CD33 W167A (P20138 18-364 W167A limits assumed): as the sequence (P20138 18-364 L141A limits assumed) above, with A124L, W150A counted along it
Chain of human CD33 N160A (P20138 18-364 N160A limits assumed): as the sequence (P20138 18-364 L141A limits assumed) above, with A124L, N143A counted along it
Chain of human CD33 L134A (P20138 18-364 L134A limits assumed): as the sequence (P20138 18-364 L141A limits assumed) above, with L117A, A124L counted along it
Chain of human CD33 N99A (P20138 18-364 N99A limits assumed): as the sequence (P20138 18-364 L141A limits assumed) above, with N82A, A124L counted along it
Chain of human CD33 E154A (P20138 18-364 E154A limits assumed): as the sequence (P20138 18-364 L141A limits assumed) above, with A124L, E137A counted along it
Chain of human CD33 G151A (P20138 18-364 G151A limits assumed): as the sequence (P20138 18-364 L141A limits assumed) above, with A124L, G134A counted along it
Chain of human CD33 K159A (P20138 18-364 K159A limits assumed): as the sequence (P20138 18-364 L141A limits assumed) above, with A124L, K142A counted along it
Chain of human CD33 N100A (P20138 18-364 N100A limits assumed): as the sequence (P20138 18-364 L141A limits assumed) above, with N83A, A124L counted along it
Chain of human CD33 C101A (P20138 18-364 C101A limits assumed): as the sequence (P20138 18-364 L141A limits assumed) above, with C84A, A124L counted along it

B1: Refmab #2 (antibody, V domains shown)
VH: QVQLVQSGAEVKKPGSSVKVSCKASGGTFSDYAISWVRQAPGQGLEWMGRIIPILGVADYAQKFQGRVTITADKSTRTAYMELSSLRSEDTAVYYCARNWADAFDIWGQGTMVTVSS
VL: DIQLTQSPSSLSASVGDRVTITCRASQGISSVLAWYQQKPGKAPKLLIYDASSLESGVPSRFSGSGSGTDFTLTISSLQPEDFATYYCQQFDSSITFGQGTKLEIK
notes: The alanine scan used IgG or Fab
For B1, the “Mean % WT Binding” value worked out at 120 % WT binding with human CD33 S135A; 102 % WT binding with human CD33 T162A; 97 % WT binding with human CD33 N100A; 132 % WT binding with human CD33 S97A; 112 % WT binding with human CD33 E154A; 89.6 % WT binding with human CD33 S102A. Also, the “Mean % WT Binding” value with human CD33 L134A came to 99.6 % WT binding; with human CD33 R122A, 3.6 % WT binding; with human CD33 K159A it was 134 % WT binding; in the assay with human CD33 R109A it was 104 % WT binding; with human CD33 P150A, 112 % WT binding; with human CD33 P145A it was 105 % WT binding. The “Mean % WT Binding” value was found to be 99.4 % WT binding with human CD33 G156A; 132 % WT binding with human CD33 G151A; 113 % WT binding with human CD33 L141A; 109 % WT binding in the assay with human CD33 W167A; 56.8 % WT binding in the assay with human CD33 N99A; 107 % WT binding with human CD33 N160A. Moreover, the “Mean % WT Binding” value with human CD33 C101A is 0.6 % WT binding; in the assay with human CD33 D107A it was 109 % WT binding.

B2: Refmab #1 (antibody, V domains shown)
VH: EVQLVQSGAEVKKPGSSVKVSCKASGYTITDSNIHWVRQAPGQSLEWIGYIYPYNGGTDYNQKFKNRATLTVDNPTNTAYMELSSLRSEDTAFYYCVNGNPWLAYWGQGTLVTVSS
VL: DIQLTQSPSTLSASVGDRVTITCRASESLDNYGIRFLTWFQQKPGKAPKLLMYAASNQGSGVPSRFSGSGSGTEFTLTISSLQPDDFATYYCQQTKEVPWSFGQGTKVEVK
notes: The alanine scan used IgG or Fab; also called hP67.6
Take B2: the “Mean % WT Binding” value with human CD33 S135A was 98.6 % WT binding; in the assay with human CD33 T162A, 86.9 % WT binding; in the assay with human CD33 N100A, 94.8 % WT binding; with human CD33 S97A it was 92.5 % WT binding; with human CD33 E154A, 88 % WT binding; in the assay with human CD33 S102A it was 85.8 % WT binding. The “Mean % WT Binding” value came out at 95.4 % WT binding with human CD33 L134A; 107 % WT binding with human CD33 R122A; 119 % WT binding in the assay with human CD33 K159A; 101 % WT binding with human CD33 R109A; 78.4 % WT binding with human CD33 P150A; 89.3 % WT binding in the assay with human CD33 P145A. For the same molecule, the “Mean % WT Binding” value with human CD33 G156A turned out to be 83.4 % WT binding; in the assay with human CD33 G151A, 81.1 % WT binding; with human CD33 L141A, 103 % WT binding; with human CD33 W167A, 89.4 % WT binding; in the assay with human CD33 N99A, 80.2 % WT binding; in the assay with human CD33 N160A, 82.3 % WT binding. For the same molecule, the “Mean % WT Binding” value came to 1.1 % WT binding with human CD33 C101A and 87.7 % WT binding with human CD33 D107A.

B3: Refmab #3 (antibody, V domains shown)
VH: QVQLVQSGAEVKKPGSSVKVSCKASGYTFTDYNMHWVRQAPGQGLEWIGYIYPYNGGTGYNQKFKSKATITADESTNTAYMELSSLRSEDTAVYYCARGRPAMDYWGQGTLVTVSS
VL: DIQMTQSPSSLSASVGDRVTITCRASESVDNYGISFMNWFQQKPGKAPKLLIYAASNQGSGVPSRFSGSGSGTDFTLTISSLQPDDFATYYCQQSKEVPWTFGQGTKVEIK
notes: as for B1
As to B3, the “Mean % WT Binding” value with human CD33 S135A came out at 107 % WT binding; with human CD33 T162A, 109 % WT binding; with human CD33 N100A, 107 % WT binding; in the assay with human CD33 S97A it was 90.4 % WT binding; in the assay with human CD33 E154A, 126 % WT binding; with human CD33 S102A it was 75.9 % WT binding. Moreover, the “Mean % WT Binding” value amounted to 81.4 % WT binding in the assay with human CD33 L134A; 177 % WT binding in the assay with human CD33 R122A; 110 % WT binding with human CD33 K159A; 112 % WT binding with human CD33 R109A; 102 % WT binding with human CD33 P150A; 75.2 % WT binding in the assay with human CD33 P145A. The “Mean % WT Binding” value with human CD33 G156A is 116 % WT binding; with human CD33 G151A, 108 % WT binding; with human CD33 L141A, 153 % WT binding; with human CD33 W167A, 129 % WT binding; in the assay with human CD33 N99A, 98.6 % WT binding; with human CD33 N160A it was 99.3 % WT binding. The “Mean % WT Binding” value with human CD33 D107A was 92.5 % WT binding.
